Measured values: paper PMC3887004

Molecular target: F-actin (actin from rabbit skeletal muscle) (rabbit) (UniProt P68135)

Substance: Myo IX headΔext (motor domain lacking the N-terminal extension) (domain or fragment)
- run length λ of Qdot-labelled myosin moving along immobilised actin filaments (stepping assay): 2.9 µm
